Laboratory results: article PMC8784642

Target: Thermoanaerobacter italicus TagA^FL∗ (residues M1-R244, I203E/L209Q/L212K/I216E), solubility-enhanced TagA (Thermoanaerobacter italicus)
Experiment: AUC

- Kd: 210 µM
- stoichiometry N: 2
Substance: Thermoanaerobacter italicus TagA^FL∗ (residues M1-R244, I203E/L209Q/L212K/I216E), solubility-enhanced TagA (enzyme)
